Article PMC11127164, “Brefeldin A and M-COPA block the export of RTKs from the endoplasmic reticulum via simultaneous inactivation of ARF1, ARF4, and ARF5” (The Journal of Biological Chemistry, 2024)

T1: glutathione S-transferase-fused Golgi-localized γ-adaptin ear-containing, ARF-binding protein 3 (1–316) (UniProt Q9NZ52 1-316)
T1 construct: also called GST-GGA3; GST-GGA3(1–316); source: bought: Cytoskeleton, coated on Sepharose beads
T1 sequence (looked up): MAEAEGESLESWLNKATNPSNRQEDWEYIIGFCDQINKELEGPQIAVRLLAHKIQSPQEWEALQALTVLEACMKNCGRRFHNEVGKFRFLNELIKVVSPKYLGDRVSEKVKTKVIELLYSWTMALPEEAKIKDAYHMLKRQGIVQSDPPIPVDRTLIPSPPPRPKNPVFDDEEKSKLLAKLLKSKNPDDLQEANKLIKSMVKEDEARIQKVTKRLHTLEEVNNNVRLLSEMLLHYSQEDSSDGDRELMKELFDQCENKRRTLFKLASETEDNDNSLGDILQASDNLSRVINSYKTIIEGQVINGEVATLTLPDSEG

B1: ADP-ribosylation factor 1 (natural protein)
chain: not shown
notes: ADP-ribosylation factor 1 (ARF1), human, endogenous in GIST-T1 and PC-9 cells; also called ARF1; source: endogenous, GIST-T1 and PC-9 lysate
B2: ADP-ribosylation factor 4 (natural protein, human (endogenous in GIST-T1 and PC-9), UniProt P18085 1-180, looked up)
chain: MGLTISSLFSRLFGKKQMRILMVGLDAAGKTTILYKLKLGEIVTTIPTIGFNVETVEYKNICFTVWDVGGQDRIRPLWKHYFQNTQGLIFVVDSNDRERIQEVADELQKMLLVDELRDAVLLLFANKQDLPNAMAISEMTDKLGLQSLRNRTWYVQATCATQGTGLYEGLDWLSNELSKR
notes: ADP-ribosylation factor 4 (ARF4), human, endogenous in GIST-T1 and PC-9 cells; also called ARF4; source: endogenous, GIST-T1 and PC-9 lysate
B3: ADP-ribosylation factor 5 (natural protein, human (endogenous in GIST-T1 and PC-9), UniProt P84085 1-180, looked up)
chain: MGLTVSALFSRIFGKKQMRILMVGLDAAGKTTILYKLKLGEIVTTIPTIGFNVETVEYKNICFTVWDVGGQDKIRPLWRHYFQNTQGLIFVVDSNDRERVQESADELQKMLQEDELRDAVLLVFANKQDMPNAMPVSELTDKLGLQHLRSRTWYVQATCATQGTGLYDGLDWLSHELSKR
notes: ADP-ribosylation factor 5 (ARF5), human, endogenous in GIST-T1 and PC-9 cells; also called ARF5; source: endogenous, GIST-T1 and PC-9 lysate

target: T1, glutathione S-transferase-fused …; assay: pull-down; GST-GGA3(1–316)-coated Sepharose beads incubated with lysates of GIST-T1 or PC-9 cells at 4 °C for 1 h, washed once, immunoblot for ARFs; cells untreated or treated with 1 μM M-COPA or 1 μM BFA for 4 h (GIST-T1) or 200 nM M-COPA for 8 h (PC-9); details: one partner purified

Row | Binder | level of GGA3-bound ARF after M-COPA treatment of the cells, relative to the untreated control
1 | B1 | < 18%
2 | B2 | < 18%
3 | B3 | < 18%

target: T2, Golgi-specific BFA-resistance guanine nucleotide exchange factor 1 (human (endogenous in GIST-T1), UniProt Q92538 1-1860); assay: co-IP; endogenous GBF1 immunoprecipitated from GIST-T1 lysate (NP-40 lysis buffer, 50 mM HEPES pH 7.4) with anti-GBF1 on Dynabeads Protein G, 4 °C, 5 h, immunoblot for ARFs; cells untreated or treated with 1 μM M-COPA for 4 h; co-precipitated ARF normalised to GBF1; details: partners not purified
T2 construct: Golgi-specific BFA-resistance guanine nucleotide exchange factor 1 (GBF1), human, endogenous in GIST-T1 cells; Immunoprecipitated with an anti-GBF1 antibody on Dynabeads Protein G; also called GBF1; source: endogenous, GIST-T1 lysate
T2 sequence (Q92538 whole entry): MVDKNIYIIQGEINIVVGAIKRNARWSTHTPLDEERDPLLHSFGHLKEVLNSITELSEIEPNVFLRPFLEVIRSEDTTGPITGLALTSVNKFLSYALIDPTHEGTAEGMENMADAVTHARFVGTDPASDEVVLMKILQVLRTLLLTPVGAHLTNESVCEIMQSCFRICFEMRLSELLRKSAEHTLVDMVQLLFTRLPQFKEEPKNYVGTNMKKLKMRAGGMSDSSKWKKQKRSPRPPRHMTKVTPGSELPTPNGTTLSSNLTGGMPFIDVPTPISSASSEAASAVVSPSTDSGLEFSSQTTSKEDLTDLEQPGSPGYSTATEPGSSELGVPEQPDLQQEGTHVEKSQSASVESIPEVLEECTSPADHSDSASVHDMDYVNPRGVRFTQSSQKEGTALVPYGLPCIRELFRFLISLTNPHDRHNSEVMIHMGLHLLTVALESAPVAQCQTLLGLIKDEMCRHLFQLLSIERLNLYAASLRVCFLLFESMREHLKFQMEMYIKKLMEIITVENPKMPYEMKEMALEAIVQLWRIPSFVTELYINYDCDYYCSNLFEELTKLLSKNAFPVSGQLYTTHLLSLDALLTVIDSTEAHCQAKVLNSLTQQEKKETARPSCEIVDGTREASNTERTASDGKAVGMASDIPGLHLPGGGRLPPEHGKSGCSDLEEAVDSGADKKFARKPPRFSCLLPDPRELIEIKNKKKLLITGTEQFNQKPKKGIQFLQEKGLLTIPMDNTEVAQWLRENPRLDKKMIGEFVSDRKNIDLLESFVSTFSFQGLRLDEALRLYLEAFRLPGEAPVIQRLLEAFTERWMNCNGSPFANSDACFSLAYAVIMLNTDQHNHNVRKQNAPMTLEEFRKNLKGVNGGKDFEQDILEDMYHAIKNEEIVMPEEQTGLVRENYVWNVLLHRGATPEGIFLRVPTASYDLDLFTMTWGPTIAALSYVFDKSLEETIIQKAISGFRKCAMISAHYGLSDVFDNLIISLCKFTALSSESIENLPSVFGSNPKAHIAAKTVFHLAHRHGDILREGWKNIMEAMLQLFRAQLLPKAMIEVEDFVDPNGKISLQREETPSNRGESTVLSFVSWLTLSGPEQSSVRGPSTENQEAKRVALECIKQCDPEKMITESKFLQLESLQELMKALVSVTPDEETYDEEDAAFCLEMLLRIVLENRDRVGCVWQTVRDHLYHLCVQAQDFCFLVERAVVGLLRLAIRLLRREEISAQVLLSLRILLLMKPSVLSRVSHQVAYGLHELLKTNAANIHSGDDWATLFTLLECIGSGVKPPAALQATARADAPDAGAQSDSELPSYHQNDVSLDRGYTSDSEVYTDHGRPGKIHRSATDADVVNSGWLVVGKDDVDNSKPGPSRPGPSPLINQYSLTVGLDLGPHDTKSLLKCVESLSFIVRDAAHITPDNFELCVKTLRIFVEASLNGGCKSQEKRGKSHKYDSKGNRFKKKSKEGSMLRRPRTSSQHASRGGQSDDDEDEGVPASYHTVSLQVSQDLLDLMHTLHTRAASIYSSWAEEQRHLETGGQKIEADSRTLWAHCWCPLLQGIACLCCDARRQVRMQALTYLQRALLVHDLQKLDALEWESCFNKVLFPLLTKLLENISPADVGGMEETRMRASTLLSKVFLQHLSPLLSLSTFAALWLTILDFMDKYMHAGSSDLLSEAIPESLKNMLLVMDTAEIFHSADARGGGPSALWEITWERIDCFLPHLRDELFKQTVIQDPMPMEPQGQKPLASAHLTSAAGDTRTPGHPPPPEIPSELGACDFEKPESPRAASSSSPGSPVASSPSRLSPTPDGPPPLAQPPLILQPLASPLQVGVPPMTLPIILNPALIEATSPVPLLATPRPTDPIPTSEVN

Row | Binder | fold increase of ARF co-immunoprecipitated with GBF1 after M-COPA treatment, relative to the untreated control
4 | B1 | 6.89 fold
5 | B2 | 14.1 fold
6 | B3 | 8.66 fold
